Test results: PMC4154873, “Delineation of Interfaces on Human Alpha-Defensins Critical for Human Adenovirus and Human Papillomavirus Inhibition” (PLoS Pathogens, 2014)

B1: unnamed (parent)
chain 1: ATCYCRTGRCATRESLSGVCEISGRLYRLCCR
chain 2: MKRARPSEDTFNPVYPYDTETGPPTVPFLTPPFVSPNGFQESPPGVLSLRLSEPLVTSNGMLALKMGNGLSLDEAGNLTSQNVTTVSPPLKKTKSNINLEISAPLTVTSEALTVAAAAPLMVAGNTLTMQSQAPLTVHDSKLSIATQGPLTVSEGKLALQTSGPLTTTDSSTLTITASPPLTTATGSLGIDLKEPIYTQNGKLGLKYGAPLHVTDDLNTLTVATGPGVTINNTSLQTKVTGALGFDSQGNMQLNVAGGLRIDSQNRRLILDVSYPFDAQNQLNLRLGQGPLFINSAHNLDINYNKGLYLFTASNNSKKLEVNLSTAKGLMFDATAIAINAGDGLEFGSPNAPNTNPLKTKIGHGLEFDSNKAMVPKLGTGLSFDSTGAITVGNKNNDKLTLWTTPAPSPNCRLNAEKDAKLTLVLTKCGSQILATVSVLAVKGSLAPISGTVQSAHLIIRFDENGVLLNNSFLDPEYWNFRNGDLTEGTAYTNAVGFMPNLSAYPKSHGKTAKSNIVSQVYLNGDKTKPVTLTITLNGTQETGDTTPSAYSMSFSWDWSGHNYINEIFATSSYTFSYIAQE
chain 3: MRRAAMYEEGPPPSYESVVSAAPVAAALGSPFDAPLDPPFVPPRYLRPTGGRNSIRYSELAPLFDTTRVYLVDNKSTDVASLNYQNDHSNFLTTVIQNNDYSPGEASTQTINLDDRSHWGGDLKTILHTNMPNVNEFMFTNKFKARVMVSRLPTKDNQVELKYEWVEFTLPEGNYSETMTIDLMNNAIVEHYLKVGRQNGVLESDIGVKFDTRNFRLGFDPVTGLVMPGVYTNEAFHPDIILLPGCGVDFTHSRLSNLLGIRKRQPFQEGFRITYDDLEGGNIPALLDVDAYQASLKDDTEQGGGGAGGSNSSGSGAEENSNAAAAAMQPVEDMNDHAIRGDTFATRAEEKRAEAEAAAEAAAPAAQPEVEKPQKKPVIKPLTEDSKKRSYNLISNDSTFTQYRSWYLAYNYGDPQTGIRSWTLLCTPDVTCGSEQVYWSLPDMMQDPVTFRSTRQISNFPVVGAELLPVHSKSFYNDQAVYSQLIRQFTSLTHVFNRFPENQILARPPAPTITTVSENVPALTDHGTLPLRNSIGGVQRVTITDARRRTCPYVYKALGIVSPRVLSSRTF

Variants of: B1
Experiment: SPR
Details: with partner chain of the complex shown, read off a plot; for Kd / screen value: steady-state binding curves at 80 sec of association time, 3-fold dilution series from 3 µM to 111 nM
[1] = defensin at 333 nM, immobilized rPenton (2115 RU), peak of sensorgram at end of association (about 180 sec)

chain 1 E21A
response [1]: 480 RU | Kd (immobilized rPenton (2115 RU)): 1600 nM | screen value (immobilized rPenton (2115 RU)): 1600 RU

chain 1 T7A
response [1]: 690 RU | Kd (immobilized rPenton (2115 RU)): 1300 nM | screen value (immobilized rPenton (2115 RU)): 2100 RU

chain 1 T12A
response [1]: 630 RU | Kd (immobilized rPenton (2115 RU)): 1500 nM | screen value (immobilized rPenton (2115 RU)): 2200 RU

chain 1 R28A
response [1]: 340 RU | Kd (immobilized rPenton (2115 RU)): 1300 nM | screen value (immobilized rPenton (2115 RU)): 1100 RU

chain 1 I22A
response [1]: 490 RU | Kd (immobilized rPenton (2115 RU)): 1500 nM | screen value (immobilized rPenton (2115 RU)): 1600 RU

chain 1 V19A
response [1]: 260 RU | screen value (immobilized rPenton (2115 RU)): 1200 RU

chain 1 L26A
response [1]: 200 RU | Kd (immobilized rPenton (2115 RU)): 1300 nM | screen value (immobilized rPenton (2115 RU)): 700 RU | response (steady-state response at 80 sec of association time, point at 3 µM defensin): 520 RU
